Laboratory results reported in patent US10683486B2, “Methods for producing hepatocytes” (BioLamina AB, priority 2015, dated 2020).

How the values were obtained:
[1] = system: MAN11 derived hepatocytes; assay: Protein secretion (ELISA) and CYP p450 activity of MAN11 derived hepatocytes; assay type: cell-based, human; details: day 18, n=3, versus MG
Protocol: MAN11 cells, another GMP grade cell line, were plated on three different substrates. The first substrate was Matrigel® (MG), and served as a control. The second substrate was coated with 5 micrograms per square centimeter (μg/cm^2) of laminin-521 (LN-521). […] The cells were then differentiated according to the Cameron protocol.
FIG. 17 is a set of four bar graphs. […] The second row of two graphs show the metabolic function of CYP p450 activity on day 18 for CYP1A2 and CYP3A activity. No significant differences were observed across the three matrices.
Looking at both Example 4 and Example 5, the MAN11 and MAN12 cells differentiated efficiently on all three substrates, with the majority of cells (>80%) expressing albumin and CYP3A, as detected by immunostaining.

[2] = system: H9 human embryonic stem cells (hESCs); assay: Immunofluorescent staining of OCT4 and Nanog in pluripotent stem cells on the substrates prior to differentiation; assay type: cell-based; details: 24 hours post-replating
Protocol: H9 human embryonic stem cells (hESCs) were cultured and maintained in a humidified 37° C., 5% CO2 incubator. Three different substrates were then prepared in 96-well plates. The first substrate was pre-coated with Matrigel® (MG), and served as a control. The second substrate was coated with 5 micrograms per square centimeter (μg/cm^2) of laminin-521 (LN-521).
[…] Cell cultures were fixed in 100% ice-cold methanol at −20 degrees Celsius for 30 minutes, and adjacent cells were pre-washed twice with PBS buffer at room temperature. Cell monolayers were blocked with 0.1% PBS-Tween solution containing 10% bovine serum albumin for 1 hour. Subsequently, the monolayers were incubated with primary antibodies diluted in PBS-0.1% Tween/1% BSA at 4 degrees Celsius overnight. After 24 hours, the primary antibodies were removed and the fixed monolayers were washed three times with PBS-0.1% Tween/1% BSA. Cells were incubated with appropriate secondary antibodies diluted in PBS-0.1% Tween/1% BSA for one hour at room temperature and washed with three times with PBS. Cultures were then mounted with PermaFluor™ Aqueous Mounting Medium and counterstained with NucBlue Hoescht 33342. […] The images were processed through Zeiss Axiovision SE 64 Rel 4.8 and analyzed using Zeiss Axiovision version 4.9.1.0. […]

LN-521: substrate coated with 5 μg/cm^2 of laminin-521, the protein formed by joining α5, β2 and γ1 chains
Albumin secretion [1]: signicantly increased
alpha fetoprotein (AFP) secretion [1]: significant reduction
alpha fetoprotein (AFP) secretion ([1]; listed as LN-512): significantly reduced foetal protein secretion
Expression Levels Nanog [2]: 88.7% ± 5.4
Expression Levels OCT4 [2]: 93.2% ± 5.9
